Test system: Escherichia coli TOP10
Assay: shrunken log2 fold change of peptide-encoding DNA abundance (4.5 h post-induction vs induction); higher = less antimicrobial activity (less host growth inhibition)
Details: time post-induction: 4.5 h; library: site-saturation at positions 5, 18, 19, 20
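Further: peptides expressed intracellularly from a pBAD plasmid library in pooled LB shake-flask culture, induced with 0.3% L-arabinose, DNA abundance read by NGS, three biological replicates, DESeq2 with apeglm shrinkage.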

Sequence	shrunken log2 fold change
RRIRGRPPRLPRPRPRPIIIPRP	-0.167
RRIRHRPPRLPRPRPRPPFYPRP	-0.288
RRIRMRPPRLPRPRPRPNQMPRP	0.217
RRIRMRPPRLPRPRPRPIKEPRP	-0.00194
RRIRVRPPRLPRPRPRPHKWPRP	-0.0581
RRIRMRPPRLPRPRPRPGQFPRP	0.0853
RRIRLRPPRLPRPRPRPFLGPRP	-0.0654
RRIRQRPPRLPRPRPRPQDEPRP	0.104
RRIRIRPPRLPRPRPRPMIAPRP	-0.101
RRIRWRPPRLPRPRPRPHKSPRP	0.0767
RRIRMRPPRLPRPRPRPASMPRP	0.311
RRIRFRPPRLPRPRPRPNPSPRP	-0.125
RRIRRRPPRLPRPRPRPFPNPRP	0.558
RRIRYRPPRLPRPRPRPLWTPRP	-0.563
RRIRVRPPRLPRPRPRPMPEPRP	-0.192
RRIRIRPPRLPRPRPRPHMKPRP	-0.809
RRIRCRPPRLPRPRPRPYTPPRP	-1.23
RRIRIRPPRLPRPRPRPLQNPRP	-0.359
RRIRTRPPRLPRPRPRPFAHPRP	-0.039
RRIRVRPPRLPRPRPRPTTFPRP	-0.118
RRIRYRPPRLPRPRPRPYVFPRP	-0.0427
RRIRKRPPRLPRPRPRPYAVPRP	0.916
RRIRARPPRLPRPRPRPKALPRP	0.294
RRIRMRPPRLPRPRPRPDGCPRP	2.12
RRIRLRPPRLPRPRPRPFMHPRP	-0.326

Sequence	shrunken log2 fold change
RRIRTRPPRLPRPRPRPSSVPRP	-0.139
RRIRTRPPRLPRPRPRPNAKPRP	-0.0531
RRIRYRPPRLPRPRPRPADMPRP	-0.382
RRIRARPPRLPRPRPRPVIEPRP	0.362
RRIRWRPPRLPRPRPRPYDMPRP	0.0118
RRIRIRPPRLPRPRPRPLMNPRP	-0.94
RRIRERPPRLPRPRPRPGANPRP	0.0574
RRIRIRPPRLPRPRPRPYVPPRP	-0.212
RRIRMRPPRLPRPRPRPPVFPRP	0.704
RRIRPRPPRLPRPRPRPGNMPRP	-0.119
RRIRYRPPRLPRPRPRPTLGPRP	-0.16
RRIRERPPRLPRPRPRPSRCPRP	0.0232
RRIRLRPPRLPRPRPRPEKVPRP	-0.0389
RRIRLRPPRLPRPRPRPTSKPRP	-0.253
RRIRKRPPRLPRPRPRPRSEPRP	-0.00081
RRIRWRPPRLPRPRPRPRDKPRP	0.347
RRIRVRPPRLPRPRPRPIYLPRP	-0.543
RRIRHRPPRLPRPRPRPIWAPRP	0.0355
RRIRTRPPRLPRPRPRPVKQPRP	-0.00945
RRIRPRPPRLPRPRPRPHQKPRP	-0.0717
RRIRPRPPRLPRPRPRPFSHPRP	-0.402
RRIRVRPPRLPRPRPRPQAAPRP	0.0662
RRIRGRPPRLPRPRPRPMREPRP	-0.00527
RRIRKRPPRLPRPRPRPGVIPRP	0.251
RRIRMRPPRLPRPRPRPWPSPRP	0.034

Sequence	shrunken log2 fold change
RRIRMRPPRLPRPRPRPGNWPRP	0.561
RRIRLRPPRLPRPRPRPYMSPRP	-0.0167
RRIRWRPPRLPRPRPRPTSPPRP	0.217
RRIRQRPPRLPRPRPRPPYKPRP	-0.166
RRIRCRPPRLPRPRPRPWHYPRP	-0.51
RRIRFRPPRLPRPRPRPVTYPRP	-0.557
RRIRVRPPRLPRPRPRPMIGPRP	-0.112
RRIRNRPPRLPRPRPRPRETPRP	-0.0277
RRIRMRPPRLPRPRPRPQRDPRP	0.0785
RRIRRRPPRLPRPRPRPMFFPRP	-0.0274
RRIRERPPRLPRPRPRPFQGPRP	0.0891
RRIRKRPPRLPRPRPRPSVYPRP	-0.0427
RRIRERPPRLPRPRPRPLEAPRP	0.105
RRIRKRPPRLPRPRPRPAMFPRP	0.337
RRIRFRPPRLPRPRPRPLFKPRP	-0.279
RRIRHRPPRLPRPRPRPAMRPRP	1.1
RRIRKRPPRLPRPRPRPAMSPRP	-0.146
RRIRKRPPRLPRPRPRPTCCPRP	0.0692
RRIRGRPPRLPRPRPRPAFMPRP	0.585
RRIRDRPPRLPRPRPRPQYMPRP	0.0516
RRIRKRPPRLPRPRPRPRLYPRP	0.0187
RRIRYRPPRLPRPRPRPQFMPRP	-0.074
RRIRVRPPRLPRPRPRPKDAPRP	0.0211
RRIRGRPPRLPRPRPRPWFQPRP	0.0619
RRIRIRPPRLPRPRPRPLDQPRP	-0.127

Sequence	shrunken log2 fold change
RRIRTRPPRLPRPRPRPTLFPRP	-0.113
RRIRPRPPRLPRPRPRPYERPRP	0.0304
RRIRERPPRLPRPRPRPMVEPRP	-0.0932
RRIRLRPPRLPRPRPRPTQFPRP	0.192
RRIRWRPPRLPRPRPRPWKSPRP	0.0574
RRIRCRPPRLPRPRPRPDDHPRP	-0.338
RRIRYRPPRLPRPRPRPLAEPRP	-0.149
RRIRYRPPRLPRPRPRPHCQPRP	-0.297
RRIRIRPPRLPRPRPRPLRVPRP	0.291
RRIRMRPPRLPRPRPRPMGTPRP	0.301
RRIRNRPPRLPRPRPRPRMGPRP	0.0394
RRIRTRPPRLPRPRPRPEVYPRP	-0.00166
RRIRFRPPRLPRPRPRPCALPRP	-0.554
RRIRDRPPRLPRPRPRPYAMPRP	0.168
RRIRKRPPRLPRPRPRPSDEPRP	0.258
RRIRFRPPRLPRPRPRPDCFPRP	-0.00719
RRIRQRPPRLPRPRPRPFMNPRP	-0.148
RRIRGRPPRLPRPRPRPIDMPRP	-0.0207
RRIRWRPPRLPRPRPRPQPWPRP	0.363
RRIRSRPPRLPRPRPRPIGYPRP	0.0746
RRIRWRPPRLPRPRPRPRHLPRP	0.11
RRIRIRPPRLPRPRPRPCHAPRP	-0.618
RRIRKRPPRLPRPRPRPWYRPRP	0.0232
RRIRFRPPRLPRPRPRPNPCPRP	-0.349
RRIRNRPPRLPRPRPRPFHIPRP	-0.0783

Sequence	shrunken log2 fold change
RRIRLRPPRLPRPRPRPEVYPRP	0.0314
RRIRERPPRLPRPRPRPKWYPRP	-0.175
RRIRTRPPRLPRPRPRPIHPPRP	-0.389
RRIRERPPRLPRPRPRPDMQPRP	-0.184
RRIRMRPPRLPRPRPRPFGMPRP	-0.0241
RRIRCRPPRLPRPRPRPMPWPRP	0.0515
RRIRNRPPRLPRPRPRPGFAPRP	0.444
RRIRNRPPRLPRPRPRPEFVPRP	0.189
RRIRCRPPRLPRPRPRPYFLPRP	-0.823
RRIRWRPPRLPRPRPRPTYEPRP	0.207
RRIRKRPPRLPRPRPRPDSGPRP	-0.00213
RRIRWRPPRLPRPRPRPNFEPRP	0.00226
RRIRRRPPRLPRPRPRPTDFPRP	-0.00455
RRIRCRPPRLPRPRPRPYSMPRP	-0.905
RRIRQRPPRLPRPRPRPLAAPRP	0.395
RRIRPRPPRLPRPRPRPWTMPRP	0.0177
RRIRFRPPRLPRPRPRPYMEPRP	-0.0116
RRIRGRPPRLPRPRPRPVIQPRP	0.0682
RRIRERPPRLPRPRPRPSMRPRP	0.353
RRIRSRPPRLPRPRPRPDILPRP	0.115
RRIRQRPPRLPRPRPRPIFEPRP	-0.224
RRIRERPPRLPRPRPRPYWIPRP	-0.376
RRIRGRPPRLPRPRPRPNFSPRP	0.078
RRIRYRPPRLPRPRPRPLQEPRP	-0.218
RRIRWRPPRLPRPRPRPATSPRP	0.385

Source: the supplement of paper PMC9112550, “Optimization of the antimicrobial peptide Bac7 by deep mutational scanning” (BMC Biology, 2022)
